Measured values: US20220403424A1 (UNIVERSITY OF PUERTO RICO, published 2022)

Molecular target: the molecule itself
Test: size exclusion chromatography, self-association

Protein	binding result
FabZ-Linker-FabZ fused homodimer (enzyme, Single-chain fusion; By SEC it elutes as a trimer of fused dimers, so three copies of this chain, at about 116 kDa; also called FabZ-FabZ; FabZFabZ; not shown: His tag from vector pET-200/TOPO) MTTNTHTLQIEEILELLPHRFPFLLVDRVLDFEEGRFLRAVKNVSVNEPFFQGHFPGKPIFPGVLILEAMAQATGILAFKSVGKLEPGELYYFAGIDEARFKRPVVPGDQMIMEVTFEKTRRGLTRFKGVALVDGKVVCEATMMCARSREASTQNVAIQTAAPVASASNGLDAAQVQGTMTTNTHTLQIEEILELLPHRFPFLLVDRVLDFEEGRFLRAVKNVSVNEPFFQGHFPGKPIFPGVLILEAMAQATGILAFKSVGKLEPGELYYFAGIDEARFKRPVVPGDQMIMEVTFEKTRRGLTRFKGVALVDGKVVCEATMMCARSREA	binds
FabA-Linker-FabZ fused heterodimer (enzyme, Single-chain fusion, His-tagged, purified from E. coli; By SEC and SAXS the chain self-associates into a higher oligomer of about 400 kDa; The number of copies is not settled: 'possibly decamers', and nonamers in computational models; also called FabA-FabZ; FabA-peptide linker-FabZ; not shown: His tag from vector pET-200/TOPO) MVDKRESYTKEDLLASGRGELFGAKGPQLPAPNMLMMDRVVKMTETGGNFDKGYVEAELDINPDLWFFGCHFIGDPVMPGCLGLDAMWQLVGFYLGWLGGEGKGRALGVGEVKFTGQVLPTAKKVTYRIHFKRIVNRRLIMGLADGEVLVDGRLIYTASDLKVGLFQDTSAFSTQNVAIQTAAPVASASNGLDAAQVQGTMTTNTHTLQIEEILELLPHRFPFLLVDRVLDFEEGRFLRAVKNVSVNEPFFQGHFPGKPIFPGVLILEAMAQATGILAFKSVGKLEPGELYYFAGIDEARFKRPVVPGDQMIMEVTFEKTRRGLTRFKGVALVDGKVVCEATMMCARSREA	binds
